# Measured values as given in article PMC12246617, “Cryo-EM structures reveal the PP2A–B55α and Eya3 interaction that can be disrupted by a peptide inhibitor” (The Journal of Biological Chemistry, 2025).
# T1: His-hB55 (human PP2A regulatory subunit B55α), P63151
# T1 chain: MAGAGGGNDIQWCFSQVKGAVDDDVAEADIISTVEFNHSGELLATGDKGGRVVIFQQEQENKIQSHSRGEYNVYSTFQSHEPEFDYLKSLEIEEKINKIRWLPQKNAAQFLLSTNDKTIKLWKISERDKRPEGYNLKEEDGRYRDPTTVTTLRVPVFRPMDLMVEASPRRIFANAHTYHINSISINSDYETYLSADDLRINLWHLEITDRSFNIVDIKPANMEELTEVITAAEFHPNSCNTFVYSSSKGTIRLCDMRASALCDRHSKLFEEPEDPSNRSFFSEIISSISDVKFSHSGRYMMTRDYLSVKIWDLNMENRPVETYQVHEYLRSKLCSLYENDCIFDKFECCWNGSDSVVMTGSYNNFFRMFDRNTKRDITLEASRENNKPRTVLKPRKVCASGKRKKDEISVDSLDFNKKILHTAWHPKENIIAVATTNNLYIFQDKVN
# Key:
# [1] = biological target: T1, His-hB55 (human PP2A regulatory subunit …); assay: MST; conditions: chain shown with the change;
# [2] = biological target: B55i peptide (computationally engineered inhibitory peptide of B55); assay: fluorescence polarisation; His-B55 serially diluted in 50 mM Tris pH 8, 100 mM NaCl, 1 mM DTT, incubated with 3 nM FITC-B55i at room temperature for 10 min
Binder,Kd ([1]; parent: 1.04 µM),also measured
"mouse Eya3 (mEya3), wild type, P97480 Y77A (protein) MEEEQDLPEQPVKKAKMQEPREQTLSQVNNPDASDEKPETSSLASNLSMSEEIMTCTDYIPRSSNDYTSQMYSAKPAAHILSVPVSETTYPGQTQYQTLQQSQPYAVYPQATQTYGLPPFASSTNASLIPTSSAIANIPAAAVASISNQDYPTYTILGQNQYQACYPSSSFGVTGQTNSDAETTTLAATTYQTEKPSAMVPAPATQRLPSDSSASPPLSQTTPNKDADDQARKNMTVKNRGKRKADASSSQDSELERVFLWDLDETIIIFHSLLTGSYAQKYGKDPTVVIGSGLTMEEMIFEVADTHLFFNDLEECDQVHVEDVASDDNGQDLSNYSFSTDGFSGSGGSGSHGSSVGVQGGVDWMRKLAFRYRKVREIYDKHKSNVGGLLSPQRKEALQRLRAEIEVLTDSWLGTALKSLLLIQSRKNCANVLITTTQLVPALAKVLLYGLGEIFPIENIYSATKIGKESCFERIVSRFGKKVTYVVIGDGRDEEIAAKQHNMPFWRITNHGDLVSLHQALELDFL",4.87 µM,
"mouse Eya3 (mEya3), wild type, P97480 H79A (protein) MEEEQDLPEQPVKKAKMQEPREQTLSQVNNPDASDEKPETSSLASNLSMSEEIMTCTDYIPRSSNDYTSQMYSAKPYAAILSVPVSETTYPGQTQYQTLQQSQPYAVYPQATQTYGLPPFASSTNASLIPTSSAIANIPAAAVASISNQDYPTYTILGQNQYQACYPSSSFGVTGQTNSDAETTTLAATTYQTEKPSAMVPAPATQRLPSDSSASPPLSQTTPNKDADDQARKNMTVKNRGKRKADASSSQDSELERVFLWDLDETIIIFHSLLTGSYAQKYGKDPTVVIGSGLTMEEMIFEVADTHLFFNDLEECDQVHVEDVASDDNGQDLSNYSFSTDGFSGSGGSGSHGSSVGVQGGVDWMRKLAFRYRKVREIYDKHKSNVGGLLSPQRKEALQRLRAEIEVLTDSWLGTALKSLLLIQSRKNCANVLITTTQLVPALAKVLLYGLGEIFPIENIYSATKIGKESCFERIVSRFGKKVTYVVIGDGRDEEIAAKQHNMPFWRITNHGDLVSLHQALELDFL",,Kd ([1]; parent: 1.04): 9.16 µM
"mouse Eya3 (mEya3), wild type, P97480 K75A (protein) MEEEQDLPEQPVKKAKMQEPREQTLSQVNNPDASDEKPETSSLASNLSMSEEIMTCTDYIPRSSNDYTSQMYSAAPYAHILSVPVSETTYPGQTQYQTLQQSQPYAVYPQATQTYGLPPFASSTNASLIPTSSAIANIPAAAVASISNQDYPTYTILGQNQYQACYPSSSFGVTGQTNSDAETTTLAATTYQTEKPSAMVPAPATQRLPSDSSASPPLSQTTPNKDADDQARKNMTVKNRGKRKADASSSQDSELERVFLWDLDETIIIFHSLLTGSYAQKYGKDPTVVIGSGLTMEEMIFEVADTHLFFNDLEECDQVHVEDVASDDNGQDLSNYSFSTDGFSGSGGSGSHGSSVGVQGGVDWMRKLAFRYRKVREIYDKHKSNVGGLLSPQRKEALQRLRAEIEVLTDSWLGTALKSLLLIQSRKNCANVLITTTQLVPALAKVLLYGLGEIFPIENIYSATKIGKESCFERIVSRFGKKVTYVVIGDGRDEEIAAKQHNMPFWRITNHGDLVSLHQALELDFL",4.24 µM,
His-hB55 (human PP2A regulatory subunit B55α) (natural protein) MAGAGGGNDIQWCFSQVKGAVDDDVAEADIISTVEFNHSGELLATGDKGGRVVIFQQEQENKIQSHSRGEYNVYSTFQSHEPEFDYLKSLEIEEKINKIRWLPQKNAAQFLLSTNDKTIKLWKISERDKRPEGYNLKEEDGRYRDPTTVTTLRVPVFRPMDLMVEASPRRIFANAHTYHINSISINSDYETYLSADDLRINLWHLEITDRSFNIVDIKPANMEELTEVITAAEFHPNSCNTFVYSSSKGTIRLCDMRASALCDRHSKLFEEPEDPSNRSFFSEIISSISDVKFSHSGRYMMTRDYLSVKIWDLNMENRPVETYQVHEYLRSKLCSLYENDCIFDKFECCWNGSDSVVMTGSYNNFFRMFDRNTKRDITLEASRENNKPRTVLKPRKVCASGKRKKDEISVDSLDFNKKILHTAWHPKENIIAVATTNNLYIFQDKVN,,Kd [2]: 0.0673 µM
